These results are taken from the RNAGym collection of RNA variant scans (doi:10.7554/elife.90254).

First the molecules themselves.
B1: LINE1-full (parent)
chain: UACGUAGGUGGUUUUCCCCUGAUAGUGCUAAGGGGGCCUGGAAGUUUGGACUGGGCAGAGCUCAACACAGCGUGGCAAAGUGGCUGUGGCUAGACUGCCUCUCUGGAUUCCUCGUCACUCAGCAGGGCAUCUCUGAGAGAAAUGCC

The variants in the data set derive from B1. Kind of data set: self-cleavage, relative activity (ratio to wild type); higher = more cleavage; in vitro, sequencing; the parent is a self-cleaving ribozyme.
On to UACGUAGGUGGUUUUCCCCUGAUAGUGCUAAGGGGGCCUGGAAGUUUGGACUGGGCAGAGCUCAACUCAGCGUGGCAAAGUGGCUGUGGCUAGACUGCCUCUCUGGGUUCCUCGUCACUCAGCAGGGCAUCUCUGAGAGAAAUGCC, for which the self-cleavage is 0. For UACGUAGGUGGUUUUCCCCUGAUAGUGCUAAGGGGGCCUGGAAGUUUGGACUGGGCAGAGCUCAACUCAGCGUGGCAAAGUGGCUGUGGCUAGACUGCCUCUCUGGAUUCCUCGUCACUCAGCAGGGCAUCUCUGAGAGAAGUGCC, the self-cleavage is 0.15. For UACGUAGGUGGUUUUCCCCUGAUAGUGCUAAGGGGGCCUGGAAGUUUGGACUGGGCAGAGCUCAACUCAGCGUGGCAAAGUGGCUGUGGCUAGACUGCCUCUCUGGAUUCCUCGUCACUCAGCAGGGCAUCUCUGGGAGAAAUGCC the value was 0.2; for UACGUAGGUGGUUUUCCCCUGAUAGUGCUAAGGGGGCCUGGAAGUUUGGACUGGGCAGAGCUCAACUCAGCGUGGCAAAGUGGCUGUGGCUAGACUGCCUCUCUGGAUUCCUCGUCACUCAGCAGGGCAUCUCUGUGAGAAAUGCC, 0.12. Next, UACGUAGGUGGUUUUCCCCUGAUAGUGCUAAGGGGGCCUGGAAGUUUGGACUGGGCAGAGCUCAACUCAGCGUGGCGAAGUGGCUGUGGCUAGACUGCCUCUCUGGAUUCCUCGUCACUCAGCAGGGCAUCUCUGAGAGAAAUGCC: 0.17; UACGUAGGUGGUUUUCCCCUGAUAGUGCUAAGGGGGCCUGGAAGUUUGGACUGGGCAGAGCUCAACUCAGCGUGGCUAAGUGGCUGUGGCUAGACUGCCUCUCUGGAUUCCUCGUCACUCAGCAGGGCAUCUCUGAGAGAAAUGCC: 0.04. Next, UACGUAGGUGGUUUUCCCCUGAUAGUGCUAAGGGGGCCUGGAAGUUUGGACUGGGCAGAGCUCAACUCAGCGUGGCAAAGUGGCUGUGGCUAGACUGCCUCUCUGGAUUCCUCGUCACUCAGCAGGGCAUCUCUGAGAGUAAUGCC: 0.08; UACGUAGGUGGUUUUCCCCUGAUAGUGCUAAGGGGGCCUGGAAGUUUGGACUGGGCAGAGCUCAACUCAGCGUGGCAAAGUGGCUGUGGCUAGACUGCCUCUCUGGAUUCCUCGUCACUCAGCAGGGCAUCUCUGAGAGGAAUGCC: 0.09; UACGUAGGUGGUUUUCCCCUGAUAGUGCUAAGGGGGCCUGGAAGUUUGGACUGGGCAGAGCUCAACUCAGCGUGGCAAAGUGGCUGUGGCUAGACUGCCUCUCUGGAUUCCUCGUCUCUCAGCAGGGCAUCUCUGAGAGAAAUGCC: 0.1. For the variant UACGUAGGUGGUUUUCCCCUGAUAGUGCUAAGGGGGCCUGGAAGUUUGGACUGGGCAGAGCUCAACGCAGCGUGGCAAAGUGGCUGUGGCUAGACUGCCUCUCUGGAUUCCUCGUCACUCAGCAGGGCAUCUCUGAGAGAAAGGCC, the self-cleavage came out at 0.37. Take UACGUAGGUGGUUUUCCCCUGAUAGUGCUAAGGGGGCCUGGAAGUUUGGACUGGGCAGAGCUCAACUCAGCGUGGCAAAGUGGCUGUGGCUAGACUGCCUCUCUGGAUUCCUCGUCACUCCGCAGGGCAUCUCUGAGAGAAAUGCC: the self-cleavage is 0.2. Next, UACGUAGGUGGUUUUCCCCUGAUAGUGCUAAGGGGGCCUGGAAGUUUGGACUGGGCAGAGCUCAACUCAGCGUGGCAAAGUGGCUGUGGCUAGACUGCCUCUCUGGAUUCCUCGUCACUCGGCAGGGCAUCUCUGAGAGAAAUGCC: 0.15; UACGUAGGUGGUUUUCCCCUGAUAGUGCUAAGGGGGCCUGGAAGUUUGGACUGGGCAGAGCUCAACUCAGCGUGGCAAAGUGGCUGUGGCUAGACUGCCUCUCUGGAUUCCUCGUCACUCAGCAGGGCAUCUCUGAGAGAGAUGCC: 0.13. In the case of UACGUAGGUGGUUUUCCCCUGAUAGUGCUAAGGGGGCCUGGAAGUUUGGACUGGGCAGAGCUCAACUCAGCGUGGCAAAGUGGCUGUGGCUAGACUGCCUCUCUGGAUUCCUCGUCACUCAGCCGGGCAUCUCUGAGAGAAAUGCC, the self-cleavage was determined as 0.17. Consider UACGUAGGUGGUUUUCCCCUGAUAGUGCUAAGGGGGCCUGGAAGUUUGGACUGGGCAGAGCUCAACUCAGCGUGGCAAAGUGGCUGUGGCUAGACUGCCUCUCUGGAUUCCUCGUCACUCAGCGGGGCAUCUCUGAGAGAAAUGCC, for which the self-cleavage was determined as 0.02.

As for UACGUAGGUGGUUUUCCCCUGAUAGUGCUAAGGGGGCCUGGAAGUUUGGACUGGGCAGAGCUCAACUCAGCGUGGCAAGGUGGCUGUGGCUAGACUGCCUCUCUGGAUUCCUCGUCACUCAGCAGGGCAUCUCUGAGAGAAAUGCC, the self-cleavage was 0.18. On to UACGUAGGUGGUUUUCCCCUGAUAGUGCUAAGGGGGCCUGGAAGUUUGGACUGGGCAGAGCUCAACUCAGCGUGGCAAUGUGGCUGUGGCUAGACUGCCUCUCUGGAUUCCUCGUCACUCAGCAGGGCAUCUCUGAGAGAAAUGCC, for which the self-cleavage came out at 0.21. Next, UACGUAGGUGGUUUUCCCCUGAUAGUGCUAAGGGGGCCUGGAAGUUUGGACUGGGCAGAGCUCAACUCAGCGUGGCAAAGUGGCUGUGGCUAGUCUGCCUCUCUGGAUUCCUCGUCACUCAGCAGGGCAUCUCUGAGAGAAAUGCC: 0.05. In the case of UACGUAGGUGGUUUUCCCCUGAUAGUGCUAAGGGGGCCUGGAAGUUUGGACUGGGCAGAGCUCAACUCAGCGUGGCAAAGUGGCUGUGGCUAGACUGCCUCUCUGGAUUCCUCGUCACUCAGCAGGGCAUCUCUGAGAGAAAUGCC, the self-cleavage amounted to 0.11.

Consider UACGUAGGUGGUUUUCCCCUGAUAGUGCUAAGGGGGCCUGGAAGUUUGGACUGGGCAGAGCUCAACUCUGCGUGGCAAAGUGGCUGUGGCUAGACUGCCUCUCUGGAUUCCUCGUCACUCAGCAGGGCAUCUCUGAGAGAAAUGCC, for which the self-cleavage came out at 0.04.
